The text below walks through data of patent US20220227815A1, “COMPOSITIONS AND METHODS USEFUL IN TREATING BRAIN DISEASES” (University of Kansas, priority 2019, published 2022).

The test system of the assay is EGR1, ARC, and NOS1 mRNA transcripts. The experiment in a line: Fluorescent in situ hybridization of mRNA transcripts in EAE mouse cortex. The format is in vivo, SJL/elite mice. The conditions noted are these: across the three groups, n=5. Here is the method: Coronal brain sections (5 μm thickness) from mid- and hind-brain were sectioned and washed three times in PBS before mounting on gelatin-coated glass slides (Superfrost Plus, Thermo Fisher Scientific). Tissue was allowed to dry at RT and then stored at −20° C. until use. Fluorescent in situ hybridization (FISH) was performed using RNAscope® Technology 2.0, Advanced Cell Diagnostics (ACD), Hayward, Calif.) Multiplex Reagent Kit V2. See Vasquez, J. J.; Hussien, R.; Aguilar-Rodriguez, B.; Junger, H.; Dobi, D.; Henrich, T. J.; Thanh, C.; Gibson, E.; Hogan, L. E.; McCune, J.; Hunt, P. W.; Stoddart, C. A.; Laszik, Z. G. Elucidating the Burden of HIV in Tissues Using Multiplexed Immunofluorescence and In Situ Hybridization: Methods for the Single-Cell Phenotypic Characterization of Cells Harboring HIV In Situ. J Histochem Cytochem 2018, 66, (6), 427-446; Gershon, T. R.; Crowther, A. J.; Liu, H.; Miller, C. R.; Deshmukh, M. Cerebellar granule neuron progenitors are the source of Hk2 in the postnatal cerebellum. Cancer Metab 2013, 1, (1), 15; and Smith, P. A.; Schmid, C.; Zurbruegg, S.; Jivkov, M.; Doelemeyer, A.; Theil, D.; Dubost, V.; Beckmann, N. Fingolimod inhibits brain atrophy and promotes brain-derived neurotrophic factor in an animal model of multiple sclerosis. J Neuroimmunol 2018, 318, 103-113. […]

B1: BDNF: recombinant brain-derived neurotrophic factor (13 kDa monomer), Peprotech (protein, UniProt P23560 19-247, looked up)
Neurotrophic factor BDNF …: APMKEANIRGQGGLAYPGVRTHGTLESVNGPKAGSRGLTSLADTFEHVIEELLDEDQKVRPNEENNKDADLYTSRVMLSSQVPLEPPLLFLLEEYKNYLDAANMSMRVRRHSDPARRGELSVCDSISEWVTAADKKTAVDMSGGTVTVLEKVPVSKGQLKQYFYETKCNPMGYTKEGCRGIDKRHWNSQCRTTQSYVRALTMDSKKRIGWRFIRIDTSCVCTLTIKRGR
Regarding B1, the “NOS mRNA expression” value is on record as “no significant difference”.
